Measurements taken from the RNAGym collection of RNA variant scans (doi:10.1073/pnas.2313332121).

B1: TPR t1 (parent)
chain: GACCAAUCUGCCCUCAGAGCUCGAGAACAUCUUCGGAUGCAGAGGAGGCAGGCUUCGGUGGCGCGAUAGCGCCAACGUCCUCAACCUCCAAUGCAUCCCACCACAUGAUGAUGCCUGAAGAGCCUUGGUUUUUUG

Variants of: B1
Experiment: polymerase ribozyme fitness, log enrichment relative to wild type (log ratio); higher = more active; in vitro selection for triplet polymerase activity
Procedure, shortened: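 Each subunit of a heterodimeric triplet polymerase ribozyme was mutagenized into a library by PCR, transcribed, and subjected to one round of in vitro selection, run in triplicate. Libraries were annealed with a biotinylated primer, the partner subunit and triplets, incubated frozen at −7 °C, and extended constructs were gel-excised, captured on streptavidin beads and recovered by RT-PCR. Input and output libraries were sequenced on Illumina, keeping genotypes with ≥10 input reads and ≥1 read per output. Fitness is log base 2 of genotype enrichment divided by wild-type enrichment, from inverse-variance-weighted replicate averages.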

Variant | polymerase ribozyme fitness (log ratio)
GGCCAAUCUGCCCUCAGAGCUCGAGAACAUCUUCGGAUGCAGAGGAGGCAGGCUUCGGCGGCGCGAUAGCGCCAACGUCCUCAAUCUCCAAUGCAUCCCACCACAUGAUGAUGCCUGAAGAGCAUUGGUUUUUUG | 0.474
GGCCAAUCUUCCCUCAGAGCUCGAGAACAUCUUCGGAUGCAGAGGAGGCAGGCUUCGGUGGCGCGAUAGCGCCAACGUCCUCAACCUUCAAUGCAUCCCACCACAUGAUGAUGCCUGAUGAGCCUUGGUUUUUUG | -0.34
GUCCGAUCUGCUCUCAGAGCUCGAGAACAUCUUCGGAUGCAGAGGAGGCAGGCUUCGGUGGCGCGAUAGCGCCAACGUCCUCAACCUCCAAUGCAUCCCACCACAUGAUGAGGCCUGAAGAGCCUUGGUUUUUUG | -1.79
GUCCAAUCUGCCCUCUGAGCUCGAGAACAUCAUCGGAUGCCGAGGAGGCAGGCUUCGGUGGCGCGAUAUCGCCAACGUCCUCAACCUCAAAUGCAUCCCACCACAUGAUGAUGCCUGAAGAGCCUUGGUUUUUUG | -7.42
GGCCAAUCUGCCCUCAGAGCUCGAGAACAUCUUCGGAUGCAGAGGAGGCAGGCUUCGGUGGCGCGAUAGCGUCAACGUCCUCAACCUUCAAUGCAUCCCACCACAUGAUGAUGCCUGAAGAGCAUUGGUUUUUUG | 1.45
GGCCAAUCUGCCCUCAGAGCUCGAGAACAUCUUCGGAUGCAGAGGAGGCAGGCUUCGGUGGCGCGAUAGCGCCAACGUCCUCAACCUCCAAUGCAUCCCACCACAUGAUAAUGCCUGAAGAGCCUUGGUUUUUUG | -1.38
GGCCAAUCUGCCCUCAGAGCUCGAGAACAUCUUCGGAUGCAGAGGAGGCAGGCUUCGGUGGCGCGAUAGCGCCAACUUCCUCAACGUCCAAUGCAUCCCACCACAUGAUGAUGCCUGAAGAGCCUUGGUUUUUUU | -2.95
GUCCAAUCUGCCCUCAGAGCUCGAGAACAUCUUCGGAUGCCGAGGAGGCAGGCUUCGGUGGCGCGAUAGCGCCAACGUCCUCAACCUCCAAUGCAUCCCACCACAUGAUGAUGUCUGAAGAGCCUUGGUUUUGUG | -5.64
GGCCAAUCUGCCCUCAGAGCUCGAGAACAUCUUCGGAUGUAGAGGAGGCAGGCUCCGGUGGCGCGAUAGCGCCAACGUCCUCAACCUCCAAUGCAUCCCACCACAUGAUGAUGCCUGAAGAGCCUUGGUUUUUUG | -1
GGCCAAUCUGCCCUCAGAGCUCGAGAACAUCUUCGGAUGCAGAGGAGGCAUGCUUCGGUGGCGCGAUAGCGCCAACGUCCUCAACCUCCAAUGCAUCCCACCACAUGAUGAUGUCUGAAGAGCCUUGGUUUUUUG | -6.82
GGCCAAUCUGCCCUCAGAGCUCGAGAACAUCUUCGGAUGCAGAGGAGGCAGGCUUCGGUGGCGCGAUAGCGCGAACGUCCUCAAACUCCAAUGCAUCCCACCACAUGAUGAUACCUGAACAGCCUUGGUUUUUUG | -3.08
GGCCAAUCUGCCCUCAGAGCUCGAGAACAUCUUCGGAUGCAGAGGAGGCAGGCUUCGGUGGCGCGAUAGCGCCAACGUCCUCAACCUCCAAUGCAUCCCACCACAUGAUGAUGCCAGAAGUGCCUUGGUUUUUUG | -0.583
GGCCAAUCUGCCCUCAGAGCUCGAGAACAUCUUCGGAUGCAGAGGAGUCAGGGUUCGGUGGCGCGAUAGCGCCAACGUCCUCAACUUCCAAUGCAUCACACCACAUGAUGAUGCCUGAAGAGGAUUGGUUUUUUG | -6.57
GGCCAAUCUGCCCUCAGAUCUCGAGAACAUCUUCGGAUGCAGAGGAGGCAGGCUUCGGUGGUGCGAUAGCGCCAACGUCCUCAACUUCCAAUGCAUCCCACCACAUGAUGAUGCCUGAAGAGCCUUGGUUUUUUG | -3.94
GGCCAAUCUGCCCUCAGAGCUCGAGAACAUCUUCGGAUGCAGAGGAGGCAGGCUUCGAUGGCGCGAUAGCGCCAACGUCCUCAACCUCCAAUGCAUCCCACCACAAGAUGAUGCCUGAAGAUUCUUGGUUUUUUG | 0.431
GUCCUAUCUGCCCUCAGAGCUCGAGAGCAUCUUCGGAUGCAGAGGAGGCAGGGUUCGGUGGCGCGAUAGCGCCAACGUCCUCAACCGCCAAUGCAUCCCACCACAUGAUGAUGCCUGAAGAGCCUUGGUUUUUUG | -4.56
GUCCAAUCUGCCCUCAGAGCUCGAGAACAUCUUCGGUUGCAGAGGAGACAGGUUUCGGUAGCGCGAUAGCGCCAACGUCCUCAAACUCCAAUGCAUCCCACCACAUGAUGAUGCCUGAAGAGCCUUGGUUUUUUG | -3.47
GGCCAAUCUGCCCUCAGAGCUCGAGAACAUCUUCGGAUGAAGAGGAGGCAGGCUUCGAUGGCGCGAUAGCGCCAACGUCCUCAACCUCCAAUGCAUCCCACCACAUGAUGAUGCCUGAAGAGCCUUGGUUUUUUG | -1.21
GGCCAAUCUGCCCUCAGAGCUCGAGAACAUCUUCGGAUGCAGAGGACGCAGGCUUCGGUGGCGCGAUAGCGCCAACGUCCGCAACCUCCAAUGCAUCCCACCACAUGAUGAUGCCUGAAGAGCCUUGGUUUUUUG | -3.47
GUCCGAUCGGCCUUCAGAGCUCGAGAACAUCUUCGGAUGCAGAGGAGGCAGGCUUCGGUGGCGUGAUAGCGCCAACGUCCUCAACCUCCAAUGCAUCCCACCACAUGAUGAUGCCUGAAGAACCUUGGUUUUUUG | -1.31
GGCCAAUCUGCCCUCAGAACUCGAGAACAUCUUCGGAUGCAGAGGAGGCAGGCUUCGGUGGCGCGAUAGCGCCAACGUCCUCAACCUCCAAUGCAUCCCACCACAUGAUGAUGCCUGAAGAGCCUUGGUUUUUUG | -2.68
